Measurements as given in PMC7615710 (2023).

Legend:
[1] = molecular target: T1, ASPP2 C-terminal domain (CTD), tag cleaved (UniProt Q13625 925-1128); experiment: ITC
T1 chain: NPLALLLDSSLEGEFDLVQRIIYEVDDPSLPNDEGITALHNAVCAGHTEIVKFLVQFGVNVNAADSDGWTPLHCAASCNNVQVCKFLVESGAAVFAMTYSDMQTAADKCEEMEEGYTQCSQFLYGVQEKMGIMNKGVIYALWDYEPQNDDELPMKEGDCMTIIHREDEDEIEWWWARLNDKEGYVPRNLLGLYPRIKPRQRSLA

[2] = molecular target: T2, ASPP1 C-terminal domain (CTD), tag cleaved (UniProt Q96KQ4 887-1090); experiment: ITC
T2 chain: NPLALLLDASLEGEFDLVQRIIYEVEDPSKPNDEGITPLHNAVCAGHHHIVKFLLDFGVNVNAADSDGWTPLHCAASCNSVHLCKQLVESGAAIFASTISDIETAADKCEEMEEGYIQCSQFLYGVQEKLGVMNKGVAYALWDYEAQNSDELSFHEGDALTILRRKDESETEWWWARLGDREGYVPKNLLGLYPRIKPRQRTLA

For LPPPKKAPTPPPRRRRTVGL [NS5A PRR peptide of HCV strain JFH-1 (20 aa)], the Kd [1] was 0.0424 µM and the Kd [2] was 3.78 µM.
